Data: the supplement of paper PMC10567573

B1: CRYL1 (parent)
chain: RNALENIRKEMKLLEQAGSLKGSL
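Also: lentivirally expressed fusions sorted by FACS into six bins by GFP to DsRed ratio, PSI derived from sequencing read proportions per bin multiplied by bin number.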

Variants of: B1
Experiment: protein stability index of a GFP-peptide fusion (GPS, HEK-293T) (PSI 1-6); higher = more stable
Details: c terminus: a fixed tail appended
For RNALETIRKEMKLLEQAGSLKGSL [N6T], the protein stability index was 2.53.
Work on RNALECIRKEMKLLEQAGSLKGSL [N6C] yielded a protein stability index of 2.33.
In the case of RNALEIIRKEMKLLEQAGSLKGSL [N6I], the protein stability index is reported as 2.45.
With RNALEEIRKEMKLLEQAGSLKGSL [N6E] the protein stability index was 3.2.
In the case of RNALEWIRKEMKLLEQAGSLKGSL [N6W], the protein stability index is reported as 2.23.
Variant RNALEPIRKEMKLLEQAGSLKGSL [N6P] has a protein stability index of 3.4.
In the case of RNALEDIRKEMKLLEQAGSLKGSL [N6D], the protein stability index is reported as 3.76.
For RNALELIRKEMKLLEQAGSLKGSL [N6L], the protein stability index was 2.17.
Variant RNALEVIRKEMKLLEQAGSLKGSL [N6V] has a protein stability index of 3.03.
Variant RNALEQIRKEMKLLEQAGSLKGSL [N6Q] has a protein stability index of 3.03.
In the case of RNALEMIRKEMKLLEQAGSLKGSL [N6M], the protein stability index is reported as 2.98.
With RNALEAIRKEMKLLEQAGSLKGSL [N6A] the protein stability index was 3.66.
For RNALEYIRKEMKLLEQAGSLKGSL [N6Y], the protein stability index was 2.53.
Work on RNALEFIRKEMKLLEQAGSLKGSL [N6F] yielded a protein stability index of 1.68.
Variant RNALEHIRKEMKLLEQAGSLKGSL [N6H] has a protein stability index of 3.38.
In the case of RNALEGIRKEMKLLEQAGSLKGSL [N6G], the protein stability index is reported as 3.79.
For RNALEKIRKEMKLLEQAGSLKGSL [N6K], the protein stability index was 3.06.
With RNALESIRKEMKLLEQAGSLKGSL [N6S] the protein stability index was 3.72.
For RNALENIRKLMKLLEQAGSLKGSL [E10L], the protein stability index was 2.44.
RNALENIRKQMKLLEQAGSLKGSL [E10Q] showed a protein stability index of 2.59.
Work on RNALENIRKMMKLLEQAGSLKGSL [E10M] yielded a protein stability index of 1.23.
RNALENIRKDMKLLEQAGSLKGSL [E10D] showed a protein stability index of 3.33.
Work on RNALENIRKFMKLLEQAGSLKGSL [E10F] yielded a protein stability index of 1.61.
With RNALENIRKTMKLLEQAGSLKGSL [E10T] the protein stability index was 2.39.
Variant RNALENIRKSMKLLEQAGSLKGSL [E10S] has a protein stability index of 2.33.
RNALENIRKYMKLLEQAGSLKGSL [E10Y] showed a protein stability index of 1.08.
Variant RNALENIRKWMKLLEQAGSLKGSL [E10W] has a protein stability index of 2.89.
For RNALENIRKHMKLLEQAGSLKGSL [E10H], the protein stability index was 2.68.
RNALENIRKKMKLLEQAGSLKGSL [E10K] showed a protein stability index of 2.31.
With RNALENIRKNMKLLEQAGSLKGSL [E10N] the protein stability index was 2.89.
In the case of RNALENIRKAMKLLEQAGSLKGSL [E10A], the protein stability index is reported as 2.36.
RNALENIRKPMKLLEQAGSLKGSL [E10P] gave a protein stability index of 3.06.
With RNALENIRKCMKLLEQAGSLKGSL [E10C] the protein stability index was 1.83.
RNALENIRKGMKLLEQAGSLKGSL [E10G] gave a protein stability index of 2.87.
For RNALENIRKRMKLLEQAGSLKGSL [E10R], the protein stability index was 1.87.
Work on RNALENIRKIMKLLEQAGSLKGSL [E10I] yielded a protein stability index of 1.92.
RNALENIRKVMKLLEQAGSLKGSL [E10V] showed a protein stability index of 2.63.
RNLLENIRKEMKLLEQAGSLKGSL [A3L] showed a protein stability index of 2.64.
With RNTLENIRKEMKLLEQAGSLKGSL [A3T] the protein stability index was 4.32.
Work on RNPLENIRKEMKLLEQAGSLKGSL [A3P] yielded a protein stability index of 4.1.
RNSLENIRKEMKLLEQAGSLKGSL [A3S] gave a protein stability index of 4.31.
RNYLENIRKEMKLLEQAGSLKGSL [A3Y] gave a protein stability index of 2.56.
With RNILENIRKEMKLLEQAGSLKGSL [A3I] the protein stability index was 2.31.
In the case of RNGLENIRKEMKLLEQAGSLKGSL [A3G], the protein stability index is reported as 3.34.
Work on RNKLENIRKEMKLLEQAGSLKGSL [A3K] yielded a protein stability index of 3.48.
RNWLENIRKEMKLLEQAGSLKGSL [A3W] gave a protein stability index of 2.57.
With RNQLENIRKEMKLLEQAGSLKGSL [A3Q] the protein stability index was 3.9.
With RNVLENIRKEMKLLEQAGSLKGSL [A3V] the protein stability index was 2.83.
For RNMLENIRKEMKLLEQAGSLKGSL [A3M], the protein stability index was 3.75.
Variant RNCLENIRKEMKLLEQAGSLKGSL [A3C] has a protein stability index of 2.45.
Work on RNNLENIRKEMKLLEQAGSLKGSL [A3N] yielded a protein stability index of 3.75.
RNDLENIRKEMKLLEQAGSLKGSL [A3D] gave a protein stability index of 3.75.
RNRLENIRKEMKLLEQAGSLKGSL [A3R] showed a protein stability index of 3.98.
RNELENIRKEMKLLEQAGSLKGSL [A3E] showed a protein stability index of 2.94.
Work on RNFLENIRKEMKLLEQAGSLKGSL [A3F] yielded a protein stability index of 2.6.
Work on RNALENIRIEMKLLEQAGSLKGSL [K9I] yielded a protein stability index of 1.48.
RNALENIRMEMKLLEQAGSLKGSL [K9M] gave a protein stability index of 2.32.
RNALENIRPEMKLLEQAGSLKGSL [K9P] showed a protein stability index of 3.58.
For RNALENIRDEMKLLEQAGSLKGSL [K9D], the protein stability index was 3.57.
For RNALENIRVEMKLLEQAGSLKGSL [K9V], the protein stability index was 3.78.
In the case of RNALENIRSEMKLLEQAGSLKGSL [K9S], the protein stability index is reported as 3.61.
RNALENIRGEMKLLEQAGSLKGSL [K9G] showed a protein stability index of 3.61.
Variant RNALENIRQEMKLLEQAGSLKGSL [K9Q] has a protein stability index of 3.29.
Work on RNALENIRWEMKLLEQAGSLKGSL [K9W] yielded a protein stability index of 1.8.
For RNALENIRHEMKLLEQAGSLKGSL [K9H], the protein stability index was 2.9.
RNALENIRREMKLLEQAGSLKGSL [K9R] showed a protein stability index of 3.31.
RNALENIRFEMKLLEQAGSLKGSL [K9F] showed a protein stability index of 1.95.
Variant RNALENIRTEMKLLEQAGSLKGSL [K9T] has a protein stability index of 3.43.
In the case of RNALENIREEMKLLEQAGSLKGSL [K9E], the protein stability index is reported as 3.83.
For RNALENIRCEMKLLEQAGSLKGSL [K9C], the protein stability index was 2.29.
RNALENIRYEMKLLEQAGSLKGSL [K9Y] showed a protein stability index of 2.78.
Variant RNALENIRLEMKLLEQAGSLKGSL [K9L] has a protein stability index of 1.94.
Variant RNALENIRNEMKLLEQAGSLKGSL [K9N] has a protein stability index of 3.12.
Variant RLALENIRKEMKLLEQAGSLKGSL [N2L] has a protein stability index of 2.88.
In the case of RAALENIRKEMKLLEQAGSLKGSL [N2A], the protein stability index is reported as 3.1.
With RRALENIRKEMKLLEQAGSLKGSL [N2R] the protein stability index was 3.49.
RMALENIRKEMKLLEQAGSLKGSL [N2M] showed a protein stability index of 3.05.
For RGALENIRKEMKLLEQAGSLKGSL [N2G], the protein stability index was 3.57.
For REALENIRKEMKLLEQAGSLKGSL [N2E], the protein stability index was 3.65.
With RYALENIRKEMKLLEQAGSLKGSL [N2Y] the protein stability index was 2.48.
In the case of RQALENIRKEMKLLEQAGSLKGSL [N2Q], the protein stability index is reported as 3.39.
With RIALENIRKEMKLLEQAGSLKGSL [N2I] the protein stability index was 2.69.
Work on RSALENIRKEMKLLEQAGSLKGSL [N2S] yielded a protein stability index of 2.85.
For RWALENIRKEMKLLEQAGSLKGSL [N2W], the protein stability index was 2.34.
RPALENIRKEMKLLEQAGSLKGSL [N2P] gave a protein stability index of 4.16.
In the case of RCALENIRKEMKLLEQAGSLKGSL [N2C], the protein stability index is reported as 2.72.
Work on RDALENIRKEMKLLEQAGSLKGSL [N2D] yielded a protein stability index of 3.52.
RKALENIRKEMKLLEQAGSLKGSL [N2K] showed a protein stability index of 2.83.
RTALENIRKEMKLLEQAGSLKGSL [N2T] showed a protein stability index of 2.92.
RFALENIRKEMKLLEQAGSLKGSL [N2F] gave a protein stability index of 2.87.
RHALENIRKEMKLLEQAGSLKGSL [N2H] gave a protein stability index of 3.49.
Variant RNALENIRKECKLLEQAGSLKGSL [M11C] has a protein stability index of 3.37.
With RNALENIRKEIKLLEQAGSLKGSL [M11I] the protein stability index was 3.24.
RNALENIRKEAKLLEQAGSLKGSL [M11A] gave a protein stability index of 3.4.
